Measured values reported in PMC6345565.

Molecular target: PICK1 WT without SNAP-tag (rat (Rattus norvegicus)), Q9EP80
Assay: fluorescence polarisation; competition: increasing unlabelled peptide, fixed 70% saturating PICK1 with OrG DAT C13; 50 mM Tris pH 7.4, 125 mM NaCl, 1 mM DTT, 0.01% Triton X-100; on ice; apparent Ki

Binder EVRQFTLRHWLKV (modifications not checked) [unlabeled peptide of the DAT C-terminus (competitor in fluorescence polarisation)] has a Ki of 2100 nM.
